Laboratory results reported in IntAct's records for PubMed 19400808.

B1: Nitrogen regulatory protein (Escherichia coli (strain K12)), P69829 (parent)
chain: MTNNDTTLQLSSVLNRECTRSRVHCQSKKRALEIISELAAKQLSLPPQVVFEAILTREKMGSTGIGNGIAIPHGKLEEDTLRAVGVFVQLETPIAFDAIDNQPVDLLFALLVPADQTKTHLHTLSLVAKRLADKTICRRLRAAQSDEELYQIITDTEGTPDEA
partner: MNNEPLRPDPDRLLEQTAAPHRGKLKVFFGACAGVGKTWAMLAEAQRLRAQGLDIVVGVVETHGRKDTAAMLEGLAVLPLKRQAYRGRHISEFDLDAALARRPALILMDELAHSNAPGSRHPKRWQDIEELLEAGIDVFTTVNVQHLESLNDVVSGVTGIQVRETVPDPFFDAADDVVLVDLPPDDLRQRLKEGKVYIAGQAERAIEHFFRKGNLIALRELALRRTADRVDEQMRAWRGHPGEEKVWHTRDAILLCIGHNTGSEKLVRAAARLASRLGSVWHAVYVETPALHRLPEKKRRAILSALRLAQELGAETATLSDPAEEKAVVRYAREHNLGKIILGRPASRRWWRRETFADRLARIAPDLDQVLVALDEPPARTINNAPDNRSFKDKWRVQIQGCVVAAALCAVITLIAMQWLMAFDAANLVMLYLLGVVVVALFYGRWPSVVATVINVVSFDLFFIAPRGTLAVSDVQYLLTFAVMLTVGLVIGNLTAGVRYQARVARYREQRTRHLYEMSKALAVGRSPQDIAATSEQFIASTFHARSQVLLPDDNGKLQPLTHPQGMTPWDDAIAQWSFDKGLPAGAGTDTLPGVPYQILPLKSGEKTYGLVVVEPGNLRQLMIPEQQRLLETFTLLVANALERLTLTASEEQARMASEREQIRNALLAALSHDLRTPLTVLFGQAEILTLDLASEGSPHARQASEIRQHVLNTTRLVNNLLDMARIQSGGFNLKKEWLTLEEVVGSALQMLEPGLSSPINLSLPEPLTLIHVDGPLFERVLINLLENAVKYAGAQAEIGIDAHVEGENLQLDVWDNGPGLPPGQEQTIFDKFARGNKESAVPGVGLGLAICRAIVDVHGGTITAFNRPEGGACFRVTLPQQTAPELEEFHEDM

Variants of: B1
Conditions: with kdpd_ecoli kdpD

Row | effect of a mutation on the interaction | Variant
1 | increasing interaction strength | H73A
